For series [1], the system named is TH in cultured dopaminergic neurons. The following applies: cultured dopaminergic neurons after MPP+ challenge; Pong et al. (22); cited from earlier work.
Series [2] has as its target tyrosine hydroxylase (TH) (Rattus norvegicus, UniProt P04177). The experiment in a line: Nitration of TH by peroxynitrite in vitro. The following applies: recombinantly purified TH treated with peroxynitrite in vitro. Format: biochemical. An excerpt: Cysteine, methionine, tryptophan and tyrosine appear to be the principal amino acids in proteins modified by peroxynitrite in vitro (9-14). To resolve the apparent differences, the reaction of peroxynitrite with recombinantly purified rat TH in vitro was re-examined and no evidence of cysteine oxidation was found. Oxidation of one cysteine residue per molecule of TH was observed only at high peroxynitrite concentrations, and three cysteine residues were oxidized in partially unfolded protein.

In series [3] the test system is tyrosine hydroxylase (TH). The experiment in a line: Tyrosine hydroxylase activity assay ([3H]H2O release from [3H]tyrosine) of wt- and mutant-TH, with and without peroxynitrite treatment. Format: biochemical, rat. The following applies: nitrating and oxidizing concentrations of peroxynitrite, phosphate buffer 0.1 M, DTPA 0.1 mM, pH 7.4, FIG. 3A. As for the experimental part:
(§1) To further confirm the site of nitration in vivo, the tyrosine residues 423, 428, and 432 were individually mutated to Phe. The Tyr423Phe, Tyr428Phe, and Tyr432Phe mutants were created with the QuikChange™ Site-Directed mutagenesis kit from Stratagene as previously described (25). Wild-type rat TH cDNA (GenBank accession no.: NM-012740) was subcloned into the mammalian pcDNA3.1+ expression vector (invitrogen) and used as the DNA template (25 ng) to create the mutants. Complete DNA sequencing data verified the presence of the appropriate mutation in the coding sequences of all recombinant proteins.
(§2) Recombinant wt- and mutant TH were isolated and purified from BL21(DE3)pLysS E. coli expressing the full-length wt-TH, Y423F-TH, Y428F-TH, or Y432F-TH cDNAs. Following isolation enzyme activity was assayed after treatment with peroxynitrite as previously described (25 and 26). Briefly, wt- or mutant-TH were exposed to several concentrations of peroxynitrite under identical conditions, in phosphate buffer 0.1 M containing DTPA 0.1 mM at pH 7.4. The activity of TH was assayed by the release of [^3H]H2O from [^3H]tyrosine in the presence of catalase. The specific activity of the partially purified Tyr423Phe mutant TH was 20% of the wild type TH. It is also shown that the enzyme activity of the wild type, and the Tyr428Phe and Tyr432Phe mutants were inhibited by exposure to nitrating and oxidizing concentrations of peroxynitrite (FIG. 3A). […] Enzymatic activity was assessed using a standard assay and the Lovenberg assay as described in (26) (FIGS. 3B and 3C).

In series [4] the target is T1, tyrosine hydroxylase (TH) (Rattus norvegicus, UniProt P04177, Y423F).
T1 construct: E. coli expressing the full-length wt-TH, Y423F-TH, Y428F-TH, or Y432F-TH cDNAs; made in house; host or cells: BL21(DE3)pLysS E. coli
Described as above. Format: biochemical. The procedure: as §1, §2

Entries after “also recorded” stand apart in the source; their conditions may differ.

T1 sequence (P04177 2-498 Y423F): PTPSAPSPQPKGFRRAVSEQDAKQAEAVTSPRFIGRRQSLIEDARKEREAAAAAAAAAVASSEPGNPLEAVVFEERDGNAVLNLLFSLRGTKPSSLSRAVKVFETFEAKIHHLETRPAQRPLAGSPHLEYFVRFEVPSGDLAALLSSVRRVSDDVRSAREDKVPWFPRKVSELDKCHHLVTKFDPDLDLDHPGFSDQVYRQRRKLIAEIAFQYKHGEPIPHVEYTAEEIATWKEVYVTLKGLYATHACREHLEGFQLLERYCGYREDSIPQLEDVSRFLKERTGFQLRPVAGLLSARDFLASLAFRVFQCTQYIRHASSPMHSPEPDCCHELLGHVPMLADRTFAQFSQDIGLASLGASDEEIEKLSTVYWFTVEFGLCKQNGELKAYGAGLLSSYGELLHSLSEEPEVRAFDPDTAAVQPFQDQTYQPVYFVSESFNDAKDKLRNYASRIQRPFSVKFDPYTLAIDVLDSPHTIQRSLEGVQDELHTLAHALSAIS
Sequence of tyrosine hydroxylase (TH) (Rattus norvegicus, UniProt P04177) (P04177 whole entry): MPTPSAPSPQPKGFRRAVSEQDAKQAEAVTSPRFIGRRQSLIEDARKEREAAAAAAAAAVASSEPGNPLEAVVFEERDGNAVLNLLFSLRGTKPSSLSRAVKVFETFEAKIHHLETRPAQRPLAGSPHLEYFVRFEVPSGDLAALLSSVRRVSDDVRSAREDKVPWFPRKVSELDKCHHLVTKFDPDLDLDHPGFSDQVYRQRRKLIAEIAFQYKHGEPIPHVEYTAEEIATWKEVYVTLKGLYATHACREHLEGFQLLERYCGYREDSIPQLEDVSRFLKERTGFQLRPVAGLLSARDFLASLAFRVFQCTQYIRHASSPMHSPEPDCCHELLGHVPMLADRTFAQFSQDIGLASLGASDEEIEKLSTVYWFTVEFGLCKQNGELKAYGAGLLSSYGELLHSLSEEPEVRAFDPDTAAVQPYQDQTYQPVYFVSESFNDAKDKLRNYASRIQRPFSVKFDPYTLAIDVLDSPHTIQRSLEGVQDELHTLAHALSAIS

Take `COc1cccc(C=NCCN=Cc2cccc(OC)c2[O-])c1[O-].[Cl-].[Mn+3]` [EUK134]: in series [1], the “nitration of TH” value is on record as “prevented nitration of TH”.

For “Tyr423Phe mutant TH: rat tyrosine hydroxylase in which Tyr423 was substituted with Phe”, the nitration by peroxynitrite entry in series [2] is listed as “lack of nitration”. The “TH enzymatic activity after exposure to peroxynitrite” value (“TH enzymatic activity after exposure” for short) is “no significant loss of enzymatic activity” in series [3] (listed as Tyr423 Phe mutant) and “no loss in TH enzymatic activity; also recorded: unaffected” in series [3] (listed as Tyr423Phe mutant). In addition, the “resistance to inactivation by different concentrations of peroxynitrite compared to wild type TH, Lovenberg assay” value in series [4] (cell lysates, Lovenberg assay, FIG. 3C) is reported as “resist inactivation”. In addition, in series [4] (cell lysates, standard assay, FIG. 3B), the “resistance to inactivation by different concentrations of peroxynitrite compared to wild type TH” value is recorded as “resist inactivation”. Besides, the “specific activity relative to wild type TH” value in series [4] (partially purified protein, % of the wild type TH) amounted to 20%.

Consider “Tyr428Phe: rat tyrosine hydroxylase mutant with tyrosine residue 428 mutated to Phe”, for which the “TH enzymatic activity after exposure” value in series [3] is listed as “inhibited”.

“Tyr432Phe: rat tyrosine hydroxylase mutant with tyrosine residue 432 mutated to Phe”: in series [3], the “TH enzymatic activity after exposure” value is given as “inhibited”.

Take “wild type: recombinant wild-type rat tyrosine hydroxylase (GenBank accession no. NM-012740) [reference compound]”: the “TH enzymatic activity after exposure” value in series [3] is “inhibited”.

The values above are taken from patent US20030143208A1, “Oxidative stress-resistant cell lines and methods of use thereof” (priority 2002, published 2003).
